From patent US20120028912

Biological target: T1, HIV-1 Tat protein, wild type
T1 chain: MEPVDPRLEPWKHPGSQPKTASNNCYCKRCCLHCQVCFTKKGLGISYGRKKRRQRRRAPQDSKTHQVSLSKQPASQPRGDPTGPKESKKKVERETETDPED

B1: p300/CBP-associated factor (P/CAF), HA-tagged (protein)
chain: MSEAGGAGPGGCGAGAGAGAGPGALPPQPAALPPAPPQGSPCAAAAGGSGACGPATAVAAAGTAEGPGGGGSARIAVKKAQLRSAPRAKKLEKLGVYSACKAEESCKCNGWKNPNPSPTPPRADLQQIIVSLTESCRSCSHALAAHVSHLENVSEEEMNRLLGIVLDVEYLFTCVHKEEDADTKQVYFYLFKLLRKSILQRGKPVVEGSLEKKPPFEKPSIEQGVNNFVQYKFSHLPAKERQTIVELAKMFLNRINYWHLEAPSQRRLRSPNDDISGYKENYTRWLCYCNVPQFCDSLPRYETTQVFGRTLLRSVFTVMRRQLLEQARQEKDKLPLEKRTLILTHFPKFLSMLEEEVYSQNSPIWDQDFLSASSRTSQLGIQTVINPPPVAGTISYNSTSSSLEQPNAGSSSPACKASSGLEANPGEKRKMTDSHVLEEAKKPRVMGDIPMELINEVMSTITDPAAMLGPETNFLSAHSARDEAARLEERRGVIEFHVVGNSLNQKPNKKILMWLVGLQNVFSHQLPRMPKEYITRLVFDPKHKTLALIKDGRVIGGICFRMFPSQGFTEIVFCAVTSNEQVKGYGTHLMNHLKEYHIKHDILNFLTYADEYAIGYFKKQGFSKEIKIPKTKYVGYIKDYEGATLMGCELNPRIPYTEFSVIIKKQKEIIKKLIERKQAQIRKVYPGLSCFKDGVRQIPIESIPGIRETGWKPSGKEKSKEPRDPDQLYSTLKSILQQVKSHQSAWPFMEPVKRTEAPGYYEVIRFPMDLKTMSERLKNRYYVSKKLFMADLQRVFTNCKEYNAAESEYYKCANILEKFFFSKIKEAGLIDK
- Superinduction of Tat transactivation activity: as much as a 30-fold increase upon P/CAF stimulation
